# Measured values reported in US20210002623A1 (CENTRE NATIONAL DE LA RECHERCHE SCIENTIFIQUE, published 2021).
# Molecular target: the molecule itself
# Test: self-assembly into a homododecamer; gel filtration and negative stain electron microscopy
protein,measurement,value
"MjTET (TET aminopeptidase of Methanocaldococcus jannaschii, product of gene MJ0555) (enzyme, Untagged recombinant form made in E. coli; It forms a tetrahedral homododecamer; Activity assays were run with 0.1 mM CoCl2; also called MJ0555 protein; TET protein) MSVVEYLKKLSKLHGISGREDSVREFMKKELEKYCDSVEIDNFGNLIAKRGNKGKKIMIAAHMDEIGLMVKYIDDNGFLKFTKIGGIYDPTILNQKVVVHGSKGDLIGVLGSKPPHRMKEEEKTKIIKYEDMFIDIGAESREEAIEMGVNIGTWVSFLSEVYDLGKNRLTGKAFDDRVGCAVLLEVMKRLSEEDIDCQVYAVGTVQEEVGLKGARVSAFKINPDVAIALDVTIAGDHPGIKKEDAPVDLGKGPVVGIVDASGRGLIAHPKVLDMIKAVSEKYKIDVQWEVGEGGTTDATAIHLTREGIPTGVISVPARYIHTPVEVIDKRDLEKTVELVYNCIKEVNNFF",binding result,binds
